Test results: patent US20250011363A1, “OPTIMIZED SHORTENED PEPTIDE THAT BINDS TO ACETYLCHOLINE RECEPTOR, AND USE THEREOF” (SKINMED CO., LTD., priority 2021, published 2025)

B1: 5mer-1070 (peptide)
peptide: RETGK
B2: 5mer-1061 (peptide)
peptide: KDSFR
B3: 5mer-765 (peptide)
peptide: RNEFR
B4: 5mer-1073 (peptide)
peptide: RDEAK
B5: 5mer-766 (peptide)
peptide: RNMEK
B6: 5mer-1068 (peptide)
peptide: RMHKK
B7: 5mer-1057 (peptide)
peptide: RFDPK
B8: 5mer-775 (peptide)
peptide: RHTVK
B9: 5mer-1066 (peptide)
peptide: RFWVK
B10: 5mer-1062 (peptide)
peptide: RAPWR
B11: 5mer-767 (peptide)
peptide: RFHFK
B12: 5mer-761 (peptide)
peptide: RMPWR
B13: 5mer-1065 (peptide)
peptide: KNPIR
B14: 5mer-757 (peptide)
peptide: KYCMR
B15: 5mer-1063 (peptide)
peptide: RPHVK
B16: 5mer-773 (peptide)
peptide: RPNMR
B17: 5mer-762 (peptide)
peptide: KMPER
B18: 5mer-1069 (peptide)
peptide: RPSFK
B19: 5mer-771 (peptide)
peptide: RKWVK
B20: 5mer-768 (peptide)
peptide: RDSWR
B21: 5mer-760 (peptide)
peptide: RIWAR
B22: 5mer-769 (peptide)
peptide: KTEWK
B23: 5mer-763 (peptide)
peptide: RCHVR
B24: 5mer-770 (peptide)
peptide: KKPFR
B25: 5mer-1074 (peptide)
peptide: RPCPR
B26: 5mer-764 (peptide)
peptide: KTWPK
B27: 5mer-1058 (peptide)
peptide: KIPWR
B28: 5mer-774 (peptide)
peptide: RTCDR
B29: 5mer-772 (peptide)
peptide: KYWFK
B30: 5mer-1072 (peptide)
peptide: KDWPK
B31: 5mer-1064 (peptide)
peptide: KCMKR
B32: 5mer-1060 (peptide)
peptide: KTHIK
B33: 5mer-758 (peptide)
peptide: KCDFK
B34: 5mer-759 (peptide)
peptide: KHKMR
B35: 5mer-1071 (peptide)
peptide: RYEGR
B36: 5mer-1059 (peptide)
peptide: RMAGR
B37: 5mer-1067 (peptide)
peptide: KHENK
B38: 6mer-1-943 (peptide)
peptide: KKEHDK
B39: 6mer-1-945 (peptide)
peptide: RKTSIK
B40: 6mer-1-942 (peptide)
peptide: RRMMVR
B41: 6mer-1-932 (peptide)
peptide: KRFEFK
B42: 6mer-1-940 (peptide)
peptide: RKPEDR
B43: 6mer-1-944 (peptide)
peptide: RKPAGK
B44: 6mer-1-949 (peptide)
peptide: RKEMPR
B45: 6mer-1-950 (peptide)
peptide: RKEDKR
B46: 6mer-1-937 (peptide)
peptide: RKPTNR
B47: 6mer-1-938 (peptide)
peptide: KKIAWK
B48: 6mer-1-935 (peptide)
peptide: RKKDIK
B49: 6mer-1-947 (peptide)
peptide: KRTKGR
B50: 6mer-1-939 (peptide)
peptide: KRNDFK
B51: 6mer-1-933 (peptide)
peptide: RRPWNR
B52: 6mer-1-934 (peptide)
peptide: KRPPGK
B53: 6mer-1-941 (peptide)
peptide: RKTPKK
B54: 6mer-1-936 (peptide)
peptide: RKETDR
B55: 6mer-1-951 (peptide)
peptide: RKAMDK
B56: 6mer-1-946 (peptide)
peptide: RRCEPR
B57: 6mer-1-948 (peptide)
peptide: RKFTVR

These binders were tested against acetylcholine receptor (assay: SPR, receptor immobilized, peptide 10 uM).

Row | Binder | Binding affinity (RU)
1 | B1 | 26
2 | B2 | 24
3 | B3 | 12
4 | B4 | 29
5 | B5 | 30
6 | B6 | 11
7 | B7 | 13
8 | B8 | 23
9 | B9 | 25
10 | B10 | 24
11 | B11 | 12
12 | B12 | 31
13 | B13 | 18
14 | B14 | 17
15 | B15 | 20
16 | B16 | 25
17 | B17 | 21
18 | B18 | 31
19 | B19 | 24

Row | Binder | Binding affinity (RU)
20 | B20 | 11
21 | B21 | 19
22 | B22 | 32
23 | B23 | 30
24 | B24 | 11
25 | B25 | 17
26 | B26 | 19
27 | B27 | 25
28 | B28 | 25
29 | B29 | 11
30 | B30 | 32
31 | B31 | 20
32 | B32 | 29
33 | B33 | 30
34 | B34 | 17
35 | B35 | 16
36 | B36 | 29
37 | B37 | 23

The binders below were run against acetylcholine receptor (assay: SPR, AchR immobilised on CM5 chip, peptide 10 uM).

Row | Binder | Binding affinity (RU)
38 | B38 | 43
39 | B39 | 31
40 | B40 | 37
41 | B41 | 38
42 | B42 | 29
43 | B43 | 25
44 | B44 | 37
45 | B45 | 29
46 | B46 | 34
47 | B47 | 28
48 | B48 | 40
49 | B49 | 31
50 | B50 | 41
51 | B51 | 28
52 | B52 | 39
53 | B53 | 29
54 | B54 | 36
55 | B55 | 29
56 | B56 | 31
57 | B57 | 24
